{
  "source": "patent EP4484444A1",
  "biological_target": "CPIII-Long (model substrate derived from procollagen III)",
  "assay": "cell-based or functional assay",
  "data": [
    {"substance": "human PCPE-1 fused to a C-terminal 8His tag (from UniProt Q15113 26-449)", "values": [
      {"measurement": "enhancement factor of CPIII-Long cleavage by BMP-1 with 4 equivalents", "value": "> 3"},
      {"measurement": "enhancement factor of CPIII-Long processing by BMP-1", "value": 1.7}
    ]}
  ]
}
